Reference: patent US20230002460A1 (YUHAN, published 2023)
Substitutions are numbered along the chain they refer to. In names and notes the source's numbering stands.

B1: long-acting GDF15 fusion protein (dimer) FM11-1 + Fc_hole (ΔN3, G4N, D5S, H6T, S64R; linker GS(G4S)3) (Fc fusion)
chain 1: APEAAGGPSVFLFPPKPKDTLMISRTPEVTCVVVDVSHEDPEVKFNWYVDGVEVHNAKTKPREEQYASTYRVVSVLTVLHQDWLNGKEYKCKVSNKALPAPIEKTISKAKGQPREPQVYTLPPSREEMTKNQVSLWCLVKGFYPSDIAVEWESNGQPENNYKTTPPVLDSDGSFFLYSKLTVDKSRWQQGNVFSCSVMHEALHNHYTQKSLSLSPGKGSGGGGSGGGGSGGGGSNSTCPLGPGRCCRLHTVRASLEDLGWADWVLSPREVQVTMCIGACPSQFRAANMHAQIKTRLHRLKPDTVPAPCCVPASYNPMVLIQKTDTGVSLQTYDDLLAKDCHCI
chain 2: APEAAGGPSVFLFPPKPKDTLMISRTPEVTCVVVDVSHEDPEVKFNWYVDGVEVHNAKTKPREEQYASTYRVVSVLTVLHQDWLNGKEYKCKVSNKALPAPIEKTISKAKGQPREPQVYTLPPSREEMTKNQVSLSCAVKGFYPSDIAVEWESNGQPENNYKTTPPVLDSDGSFFLVSKLTVDKSRWQQGNVFSCSVMHEALHNHYTQKSLSLSPGK
B2: long-acting GDF15 fusion protein (dimer) FM11-3 + Fc_hole (ΔN3, G4N, D5S, H6T, S64R; linker GS(G4S)7) (Fc fusion)
chain 1: APEAAGGPSVFLFPPKPKDTLMISRTPEVTCVVVDVSHEDPEVKFNWYVDGVEVHNAKTKPREEQYASTYRVVSVLTVLHQDWLNGKEYKCKVSNKALPAPIEKTISKAKGQPREPQVYTLPPSREEMTKNQVSLWCLVKGFYPSDIAVEWESNGQPENNYKTTPPVLDSDGSFFLYSKLTVDKSRWQQGNVFSCSVMHEALHNHYTQKSLSLSPGKGSGGGGSGGGGSGGGGSGGGGSGGGGSGGGGSGGGGSNSTCPLGPGRCCRLHTVRASLEDLGWADWVLSPREVQVTMCIGACPSQFRAANMHAQIKTRLHRLKPDTVPAPCCVPASYNPMVLIQKTDTGVSLQTYDDLLAKDCHCI
chain 2: B1 chain 2
B3: long-acting GDF15 fusion protein (dimer) FM11-2 + Fc_hole (ΔN3, G4N, D5S, H6T, S64R; linker GS(G4S)5) (Fc fusion)
chain 1: APEAAGGPSVFLFPPKPKDTLMISRTPEVTCVVVDVSHEDPEVKFNWYVDGVEVHNAKTKPREEQYASTYRVVSVLTVLHQDWLNGKEYKCKVSNKALPAPIEKTISKAKGQPREPQVYTLPPSREEMTKNQVSLWCLVKGFYPSDIAVEWESNGQPENNYKTTPPVLDSDGSFFLYSKLTVDKSRWQQGNVFSCSVMHEALHNHYTQKSLSLSPGKGSGGGGSGGGGSGGGGSGGGGSGGGGSNSTCPLGPGRCCRLHTVRASLEDLGWADWVLSPREVQVTMCIGACPSQFRAANMHAQIKTRLHRLKPDTVPAPCCVPASYNPMVLIQKTDTGVSLQTYDDLLAKDCHCI
chain 2: B1 chain 2
B4: long-acting GDF15 fusion protein (dimer) FM11-6 + Fc_hole (ΔN3, G4N, D5S, H6T, S64R; linker GS(EAAAK)5) (Fc fusion)
chain 1: APEAAGGPSVFLFPPKPKDTLMISRTPEVTCVVVDVSHEDPEVKFNWYVDGVEVHNAKTKPREEQYASTYRVVSVLTVLHQDWLNGKEYKCKVSNKALPAPIEKTISKAKGQPREPQVYTLPPSREEMTKNQVSLWCLVKGFYPSDIAVEWESNGQPENNYKTTPPVLDSDGSFFLYSKLTVDKSRWQQGNVFSCSVMHEALHNHYTQKSLSLSPGKGSEAAAKEAAAKEAAAKEAAAKEAAAKNSTCPLGPGRCCRLHTVRASLEDLGWADWVLSPREVQVTMCIGACPSQFRAANMHAQIKTRLHRLKPDTVPAPCCVPASYNPMVLIQKTDTGVSLQTYDDLLAKDCHCI
chain 2: B1 chain 2
B5: long-acting GDF15 fusion protein (dimer) FM11-4 + Fc_hole (ΔN3, G4N, D5S, H6T, S64R; linker GS(EEEA)6) (Fc fusion)
chain 1: APEAAGGPSVFLFPPKPKDTLMISRTPEVTCVVVDVSHEDPEVKFNWYVDGVEVHNAKTKPREEQYASTYRVVSVLTVLHQDWLNGKEYKCKVSNKALPAPIEKTISKAKGQPREPQVYTLPPSREEMTKNQVSLWCLVKGFYPSDIAVEWESNGQPENNYKTTPPVLDSDGSFFLYSKLTVDKSRWQQGNVFSCSVMHEALHNHYTQKSLSLSPGKGSEEEAEEEAEEEAEEEAEEEAEEEANSTCPLGPGRCCRLHTVRASLEDLGWADWVLSPREVQVTMCIGACPSQFRAANMHAQIKTRLHRLKPDTVPAPCCVPASYNPMVLIQKTDTGVSLQTYDDLLAKDCHCI
chain 2: B1 chain 2
B6: long-acting GDF15 fusion protein (dimer) FM11-5 + Fc_hole (ΔN3, G4N, D5S, H6T, S64R; linker GSGGSS(PT)10) (Fc fusion)
chain 1: APEAAGGPSVFLFPPKPKDTLMISRTPEVTCVVVDVSHEDPEVKFNWYVDGVEVHNAKTKPREEQYASTYRVVSVLTVLHQDWLNGKEYKCKVSNKALPAPIEKTISKAKGQPREPQVYTLPPSREEMTKNQVSLWCLVKGFYPSDIAVEWESNGQPENNYKTTPPVLDSDGSFFLYSKLTVDKSRWQQGNVFSCSVMHEALHNHYTQKSLSLSPGKGSGGSSPTPTPTPTPTPTPTPTPTPTNSTCPLGPGRCCRLHTVRASLEDLGWADWVLSPREVQVTMCIGACPSQFRAANMHAQIKTRLHRLKPDTVPAPCCVPASYNPMVLIQKTDTGVSLQTYDDLLAKDCHCI
chain 2: B1 chain 2
B7: long-acting GDF15 fusion protein ΔN2, Q51H (Fc fusion)
chain 1: APALAGGPSVFLFPPKPKDTLMISRTPEVTCVVVDVSHEDPEVKFNWYVDGVEVHNAKTKPREEQYNSTYRVVSVLTVLHQDWLNGKEYKCKVSNKALPAPIEKTISKAKGQPREPQVYTLPPSREEMTKNQVSLWCLVKGFYPSDIAVEWESNGQPENNYKTTPPVLDSDGSFFLYSKLTVDKSRWQQGNVFSCSVMHEALHNHYTQKSLSLSPGKGGGGSGGGGSGGGGSGGGGSGGGGSNGDHCPLGPGRCCRLHTVRASLEDLGWADWVLSPREVQVTMCIGACPSHFRAANMHAQIKTSLHRLKPDTVPAPCCVPASYNPMVLIQKTDTGVSLQTYDDLLAKDCHCI
chain 2: not shown
B8: long-acting GDF15 fusion protein ΔN2, Q51E (Fc fusion)
chain 1: B7 chain 1 with H291E
chain 2: not shown
B9: long-acting GDF15 fusion protein ΔN2, Q51N (Fc fusion)
chain 1: B7 chain 1 with H291N
chain 2: not shown
B10: long-acting GDF15 fusion protein ΔN2, D93N (Fc fusion)
chain 1: B7 chain 1 with H291Q, D333N
chain 2: not shown
B11: long-acting GDF15 fusion protein ΔN2, S64Q (Fc fusion)
chain 1: B7 chain 1 with H291Q, S304Q
chain 2: not shown
B12: long-acting GDF15 fusion protein ΔN2, Y101Q (Fc fusion)
chain 1: B7 chain 1 with H291Q, Y341Q
chain 2: not shown
B13: long-acting GDF15 fusion protein ΔN2, S97Q (Fc fusion)
chain 1: B7 chain 1 with H291Q, S337Q
chain 2: not shown
B14: long-acting GDF15 fusion protein ΔN2, T92E (Fc fusion)
chain 1: B7 chain 1 with H291Q, T332E
chain 2: not shown
B15: long-acting GDF15 fusion protein ΔN2, Q90H (Fc fusion)
chain 1: B7 chain 1 with H291Q, Q330H
chain 2: not shown
B16: long-acting GDF15 fusion protein ΔN2, T92S (Fc fusion)
chain 1: B7 chain 1 with H291Q, T332S
chain 2: not shown
B17: long-acting GDF15 fusion protein ΔN2, Q60N (Fc fusion)
chain 1: B7 chain 1 with H291Q, Q300N
chain 2: not shown
B18: long-acting GDF15 fusion protein ΔN2, D93E (Fc fusion)
chain 1: B7 chain 1 with H291Q, D333E
chain 2: not shown
B19: long-acting GDF15 fusion protein ΔN2, Q60L (Fc fusion)
chain 1: B7 chain 1 with H291Q, Q300L
chain 2: not shown
B20: long-acting GDF15 fusion protein ΔN2, S97N (Fc fusion)
chain 1: B7 chain 1 with H291Q, S337N
chain 2: not shown
B21: long-acting GDF15 fusion protein ΔN2, W32F (Fc fusion)
chain 1: B7 chain 1 with W272F, H291Q
chain 2: not shown
B22: long-acting GDF15 fusion protein ΔN2, Q51L (Fc fusion)
chain 1: B7 chain 1 with H291L
chain 2: not shown
B23: long-acting GDF15 fusion protein ΔN2, D93L (Fc fusion)
chain 1: B7 chain 1 with H291Q, D333L
chain 2: not shown
B24: long-acting GDF15 fusion protein ΔN2, Q90E (Fc fusion)
chain 1: B7 chain 1 with H291Q, Q330E
chain 2: not shown
B25: long-acting GDF15 fusion protein ΔN2, Y101F (Fc fusion)
chain 1: B7 chain 1 with H291Q, Y341F
chain 2: not shown
B26: long-acting GDF15 fusion protein (dimer) FM5 + Fc_hole (ΔN2, S64K) (Fc fusion)
chain 1: B7 chain 1 with H291Q, S304K
chain 2: not shown

biological target: T1, GDF15 receptors GFRAL and RET, overexpressed together on HEK293 cells (UniProt Q6UXV0 19-394; P07949 29-1114, limits assumed); test: cell-based or functional assay
T1 sequence (Q6UXV0 19-394 limits assumed, chain 1 of 2): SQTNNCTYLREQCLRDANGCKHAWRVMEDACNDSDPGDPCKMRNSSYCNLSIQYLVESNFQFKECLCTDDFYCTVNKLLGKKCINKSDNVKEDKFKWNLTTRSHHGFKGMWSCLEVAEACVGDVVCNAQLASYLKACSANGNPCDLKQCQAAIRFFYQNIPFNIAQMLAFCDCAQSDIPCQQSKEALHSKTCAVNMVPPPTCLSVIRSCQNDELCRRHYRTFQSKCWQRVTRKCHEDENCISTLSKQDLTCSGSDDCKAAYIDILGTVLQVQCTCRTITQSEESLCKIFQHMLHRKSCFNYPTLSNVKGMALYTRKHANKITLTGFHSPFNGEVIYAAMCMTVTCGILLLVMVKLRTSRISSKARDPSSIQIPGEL
T1 sequence (P07949 29-1114 limits assumed, chain 2 of 2): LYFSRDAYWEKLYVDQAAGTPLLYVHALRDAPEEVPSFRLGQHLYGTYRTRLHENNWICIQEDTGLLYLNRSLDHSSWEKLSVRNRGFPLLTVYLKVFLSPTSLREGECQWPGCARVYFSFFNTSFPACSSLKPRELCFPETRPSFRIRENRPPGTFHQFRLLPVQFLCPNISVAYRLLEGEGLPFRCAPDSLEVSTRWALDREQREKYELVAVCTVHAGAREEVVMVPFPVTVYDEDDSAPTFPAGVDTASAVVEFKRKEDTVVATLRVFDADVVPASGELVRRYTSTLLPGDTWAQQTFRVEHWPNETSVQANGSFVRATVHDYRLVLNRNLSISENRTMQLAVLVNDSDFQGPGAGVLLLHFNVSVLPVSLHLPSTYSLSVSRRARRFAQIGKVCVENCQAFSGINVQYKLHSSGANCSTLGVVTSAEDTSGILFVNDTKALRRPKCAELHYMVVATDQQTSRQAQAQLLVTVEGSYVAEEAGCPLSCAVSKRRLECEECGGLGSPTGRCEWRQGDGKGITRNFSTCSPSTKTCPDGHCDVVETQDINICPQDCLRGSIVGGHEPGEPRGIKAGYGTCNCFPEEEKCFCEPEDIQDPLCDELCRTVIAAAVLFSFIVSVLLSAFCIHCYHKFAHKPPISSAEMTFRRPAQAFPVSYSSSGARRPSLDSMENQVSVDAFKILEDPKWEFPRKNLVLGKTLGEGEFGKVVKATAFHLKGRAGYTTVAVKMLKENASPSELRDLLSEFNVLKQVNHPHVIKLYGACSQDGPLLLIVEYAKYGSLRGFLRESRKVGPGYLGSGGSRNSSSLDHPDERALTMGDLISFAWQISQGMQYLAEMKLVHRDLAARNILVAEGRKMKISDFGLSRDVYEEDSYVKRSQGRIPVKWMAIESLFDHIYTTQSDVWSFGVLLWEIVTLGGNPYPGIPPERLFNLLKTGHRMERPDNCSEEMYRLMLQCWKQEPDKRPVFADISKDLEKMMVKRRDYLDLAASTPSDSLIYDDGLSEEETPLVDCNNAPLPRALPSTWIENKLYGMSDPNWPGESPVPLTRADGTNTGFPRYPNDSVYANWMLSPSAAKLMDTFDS

Binder	EC50 [nM]	Emax (%)
B1	9.7	65.6
B2	7.8	81
B3	7.7	79.4
B4	6.8	80.3
B5	45.4	105
B6	5.1	68.2

biological target: T1, GDF15 receptors GFRAL and RET, …; test: cell-based or functional assay; remark: another data set of the same source

Binder	EC50 [nM]	Emax (%) [relative to FWT 100%] [%]
B7	24.1	90.8
B8	44.2	41.9
B9	14.2	87.8
B10	22.6	99.6
B11	7.9	100
B12	12.9	16.3
B13	9.2	118
B14	1.1	12.3
B15	43.4	73.2
B16	14.9	112
B17	7	43.5
B18	6.5	87.6
B19	11.9	96.3
B20	5.6	100
B21	19.4	51.3
B22	15.2	88.6
B23	9	59.1
B24	9.3	10.5
B25	31.8	37.5
B26	7.7	147
